Measurements: PMC2132940

B1: β-catenin (natural protein)
chain: MATQADLMELDMAMEPDRKAAVSHWQQQSYLDSGIHSGATTTAPSLSGKGNPEEEDVDTTQVLYEWEQGFSQSFTQEQVADIDGQYAMTRAQRVRAAMFPETLDEGMQIPSTQFDAAHPTNVQRLAEPSQMLKHAVVNLINYQDDAELATRAIPELTKLLNDEDQVVVNKAAVMVHQLSKKEASRHAIMRSPQMVSAIVRTMQNTNDVETARCTAGTLHNLSHHREGLLAIFKSGGIPALVKMLGSPVDSVLFYAITTLHNLLLHQEGAKMAVRLAGGLQKMVALLNKTNVKFLAITTDCLQILAYGNQESKLIILASGGPQALVNIMRTYTYEKLLWTTSRVLKVLSVCSSNKPAIVEAGGMQALGLHLTDPSQRLVQNCLWTLRNLSDAATKQEGMEGLLGTLVQLLGSDDINVVTCAAGILSNLTCNNYKNKMMVCQVGGIEALVRTVLRAGDREDITEPAICALRHLTSRHQEAEMAQNAVRLHYGLPVVVKLLHPPSHWPLIKATVGLIRNLALCPANHAPLREQGAIPRLVQLLVRAHQDTQRRTSMGGTQQQFVEGVRMEEIVEGCTGALHILARDVHNRIVIRGLNTIPLFVQLLYSPIENIQRVAAGVLCELAQDKEAAEAIEAEGATAPLTELLHSRNEGVATYAAAVLFRMSEDKPQDYKKRLSVELTSSLFRTEPMAWNETADLGLDIGAQGEPLGYRQDDPSYRSFHSGGYGQDALGMDPMMEHEMGGHHPGADYPVDGLPDLGHAQDLMDGLPPGDSNQLAWFDTDL

How the values were obtained:
Assay in all cases: co-IP
[1] = target: CD7BB1 (human | canine) (UniProt P09564)
[2] = target: CD7BB1 (human | canine) (UniProt P09564); remark: listed apart in the source
[3] = target: GP2CAD1 (rat | canine)

UniProt P09564, sequence (P09564 whole entry): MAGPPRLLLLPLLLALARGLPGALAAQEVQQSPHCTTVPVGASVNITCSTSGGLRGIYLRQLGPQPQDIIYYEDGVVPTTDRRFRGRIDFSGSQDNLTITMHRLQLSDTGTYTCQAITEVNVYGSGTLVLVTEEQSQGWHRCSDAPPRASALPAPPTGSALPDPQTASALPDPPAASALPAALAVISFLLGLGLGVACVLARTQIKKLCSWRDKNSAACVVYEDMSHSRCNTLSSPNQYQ

Molecule | stoichiometry N (α-catenin per 5 CD7BB1) [1] | stoichiometry N (β-catenin per 5 CD7BB1) [2] | stoichiometry N (β-catenin per GP2CAD1) [3]
α-catenin (natural protein) | 0.8 |  | 
B1 |  | 1 | 1
